{
  "source": "paper doi:10.1101/2020.05.04.075580",
  "binders": {"B1": {"name": "SOX-POU 15 bp (dsDNA)", "DNA 1": "GCAGATGCATAACCG", "DNA 2": "CGGTTATGCATCTGC"}},
  "key": {"[1]": {"biological_target": "T1, importin alpha2_21-50 peptide (mouse, UniProt P52293)", "test": "NMR"}, "[2]": {"biological_target": "T1, importin alpha2_21-50 peptide", "test": "NMR", "remark": "listed apart in the source"}},
  "note": "Where two headings read alike, the source gives them in different places.",
  "data": [
    {"binder": "B1", "values": [
      {"measurement": "Kd", "setting": "[1]", "value": 600, "unit": "µM"},
      {"measurement": "Kd", "setting": "[2]", "value": 300, "unit": "nM"}
    ]}
  ]
}
